Data reported in publication PMC11975286, “Functional dissection of the conserved C. elegans LEM-3/ANKLE1 nuclease reveals a crucial requirement for the LEM-like and GIY-YIG domains for DNA bridge processing”.

Tests used:
LEM-3(241-704) = target: T1, LEM-3(241-704) (Caenorhabditis elegans, UniProt G5EGA3 241-704); assay: EMSA; no divalent metal, 100 mM Na+; 0.13 nM HJ; cooperative (Hill) fit; 10 mM Tris-HCl pH 7.5, 100 mM NaCl, 5% glycerol, 5 ng/ul poly(dI-dC), 4 C, 1 h; 8.3 nM HJ-X0-1 (0.13 nM for Kd); 6% native PAGE, 0.5x TBE, 4 C; conditions: protein: recombinant; tags: His-GST removed by TEV; label: 5'-Cy5 on X0-1; four-way junction of 4 strands, 1 copy each
T1 sequence: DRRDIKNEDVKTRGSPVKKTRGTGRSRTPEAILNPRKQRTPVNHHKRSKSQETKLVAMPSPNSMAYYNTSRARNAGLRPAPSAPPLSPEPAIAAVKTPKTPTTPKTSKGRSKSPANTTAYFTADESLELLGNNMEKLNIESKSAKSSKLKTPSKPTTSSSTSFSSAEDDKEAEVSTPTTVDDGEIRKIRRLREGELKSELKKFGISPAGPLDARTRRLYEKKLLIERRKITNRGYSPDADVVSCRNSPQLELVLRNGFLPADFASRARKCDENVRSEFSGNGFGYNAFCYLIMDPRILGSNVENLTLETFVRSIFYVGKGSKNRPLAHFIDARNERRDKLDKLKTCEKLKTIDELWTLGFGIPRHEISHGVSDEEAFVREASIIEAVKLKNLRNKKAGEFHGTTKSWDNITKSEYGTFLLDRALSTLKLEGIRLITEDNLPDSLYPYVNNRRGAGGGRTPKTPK

LEM-3(485-704) = target: T2, LEM-3(485-704) (Caenorhabditis elegans, UniProt G5EGA3 485-704); assay: EMSA; no divalent metal, 100 mM Na+; 10 mM Tris-HCl pH 7.5, 100 mM NaCl, 5% glycerol, 5 ng/ul poly(dI-dC), 4 C, 1 h; 8.3 nM HJ-X0-1 (0.13 nM for Kd); 6% native PAGE, 0.5x TBE, 4 C; conditions: protein: recombinant; tags: His-GST removed by TEV; label: 5'-Cy5 on X0-1; four-way junction of 4 strands, 1 copy each
T2 sequence: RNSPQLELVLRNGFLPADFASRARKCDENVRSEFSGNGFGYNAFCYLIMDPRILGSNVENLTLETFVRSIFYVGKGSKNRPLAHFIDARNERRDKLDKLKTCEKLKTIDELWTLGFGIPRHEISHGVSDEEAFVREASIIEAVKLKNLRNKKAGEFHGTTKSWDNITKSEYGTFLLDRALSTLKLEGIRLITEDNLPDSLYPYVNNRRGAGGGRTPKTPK

B1: HJ-X0-1 (immobile Holliday junction) (structured_DNA)
DNA 1: ACGCTGCCGAATTCTACCAGTGCCTTGCTAGGACATCTTTGCCCACCTGCAGGTTCACCC
DNA 2: GGGTGAACCTGCAGGTGGGCAAAGATGTCCATCTGTTGTAATCGTCAAGCTTTATGCCGT
DNA 3: ACGGCATAAAGCTTGACGATTACAACAGATCATGGAGCTGTCTAGAGGATCCGACTATCG
DNA 4: CGATAGTCGGATCCTCTAGACAGCTCCATGTAGCAAGGCACTGGTAGAATTCGGCAGCGT
For B1, the Kd (LEM-3(241-704)) was ~40 nM and the binding result (LEM-3(485-704)) was “no binding”.
